B1: Subtilisin-chymotrypsin inhibitor-2A, P01053 (parent)
chain: MSSVEKKPEGVNTGAGDRHNLKTEWPELVGKSVEEAKKVILQDKPEAQIIVLPVGTIVTMEYRIDRVRLFVDKLDNIAQVPRVG

The series covers variants of B1. As to conditions: Hordeum vulgare; pH 6.3; 25 °C; GdnHCl; Fluorescence; MES 50 mM; structure 2CI2; whole UniProt chain shown.

Turning to T23A, the “ddG of mutation (higher = less stable)” value amounted to 0.85 kcal/mol, the denaturant m value was 1.83 kcal/mol/M and the “denaturant midpoint (higher = more stable)” value (shortened to “denaturant midpoint”) stood at 3.56 M.
The like results for T23G were, in that order, 1.16 kcal/mol, 1.95 kcal/mol/M and 3.4 M.
The like results for T23V were, in that order, 0.32 kcal/mol, 1.67 kcal/mol/M and 3.83 M.
For the variant V83T, the “ddG of mutation (higher = less stable)” value was determined as 1.15 kcal/mol, the denaturant m value came to 1.79 kcal/mol/M and the “denaturant midpoint” value stood at 3.41 M.
On to V83A, for which the “ddG of mutation (higher = less stable)” value is 1.45 kcal/mol, the denaturant m value was found to be 1.95 kcal/mol/M and the “denaturant midpoint” value came to 3.25 M.
The like results for V83G were, in that order, 3.5 kcal/mol, 2.1 kcal/mol/M and 2.2 M.
The like results for V80T were, in that order, 0.38 kcal/mol, 1.63 kcal/mol/M and 3.8 M.
With V80A, the “ddG of mutation (higher = less stable)” value is 1.51 kcal/mol, the denaturant m value was determined as 1.92 kcal/mol/M and the “denaturant midpoint” value is 3.22 M.
For V80G, the “ddG of mutation (higher = less stable)” value is 3.24 kcal/mol, the denaturant m value amounted to 2.61 kcal/mol/M and the “denaturant midpoint” value amounted to 2.33 M.
The like results for V54T were, in that order, 1.03 kcal/mol, 1.65 kcal/mol/M and 3.47 M.
On to V54G, for which the “ddG of mutation (higher = less stable)” value amounted to 2.43 kcal/mol, the denaturant m value came to 2 kcal/mol/M and the “denaturant midpoint” value came to 2.75 M.
The like results for I50V were, in that order, -0.08 kcal/mol, 1.77 kcal/mol/M and 4.04 M.
The like results for I50G were, in that order, 3.52 kcal/mol, 2.13 kcal/mol/M and 2.19 M.
For the variant I50A, the “ddG of mutation (higher = less stable)” value was found to be 2.12 kcal/mol, the denaturant m value came to 2.22 kcal/mol/M and the “denaturant midpoint” value amounted to 3.91 M.
Take A78G: the “ddG of mutation (higher = less stable)” value was determined as 1.88 kcal/mol, the denaturant m value amounted to 2.19 kcal/mol/M and the “denaturant midpoint” value was 3.03 M.

Values taken from FireProtDB (doi:10.1021/bi00017a003).
